For this experiment, the target named is minimally biotinylated GLMN (wild-type) (human, UniProt Q92990 1-594, minimally biotinylated). Put plainly: SPR. A general note: SPR reads the build-up and loss of mass on a sensor chip optically.
Sequence of minimally biotinylated GLMN (wild-type) (Q92990 whole entry): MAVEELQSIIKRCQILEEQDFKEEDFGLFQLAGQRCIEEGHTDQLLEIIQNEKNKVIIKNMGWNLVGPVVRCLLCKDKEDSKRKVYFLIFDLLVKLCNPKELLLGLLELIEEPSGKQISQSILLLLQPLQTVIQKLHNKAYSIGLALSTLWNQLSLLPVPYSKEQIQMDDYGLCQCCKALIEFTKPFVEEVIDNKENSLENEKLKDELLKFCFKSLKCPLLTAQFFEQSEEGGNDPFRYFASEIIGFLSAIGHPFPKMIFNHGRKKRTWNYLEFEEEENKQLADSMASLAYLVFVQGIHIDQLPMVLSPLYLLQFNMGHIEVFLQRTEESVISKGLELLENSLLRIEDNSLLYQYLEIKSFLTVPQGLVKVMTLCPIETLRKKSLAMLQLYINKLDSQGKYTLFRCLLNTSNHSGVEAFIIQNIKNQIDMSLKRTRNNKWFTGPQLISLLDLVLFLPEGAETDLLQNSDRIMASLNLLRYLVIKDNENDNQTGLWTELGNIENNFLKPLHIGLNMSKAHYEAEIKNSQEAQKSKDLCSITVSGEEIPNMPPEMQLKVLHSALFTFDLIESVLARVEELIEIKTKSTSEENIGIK

B1: isolated RBX1 RING domain (domain or fragment)
chain: not shown
For B1, the Kd – broadly, the concentration at which binding is half-saturated – turned out to be 38.6 nM.

These data come from PMC3477590 (Molecular cell, 2012).
